Legend:
[1] = molecular target: Fc-Fusion Protein (human soluble TNFα receptor linked to the Fc component of human immunoglobulin G1) (human) [IgG part: P01857]; assay: frontal analysis with CHO supernatant feed, fractions analysed on HiTrap MabSelect SuRe, residence time 6 min
[2] = molecular target: Fc-Fusion Protein (human soluble TNFα receptor linked to the Fc component of human immunoglobulin G1) (human) [IgG part: P01857]; assay: frontal analysis with CHO supernatant feed, Z4 medium of low ligand density, residence time 6 min
[3] = molecular target: Fc-Fusion Protein (human soluble TNFα receptor linked to the Fc component of human immunoglobulin G1) (human) [IgG part: P01857]; assay: frontal analysis with CHO supernatant feed, Z4 medium of low ligand density, residence time 2.4 min
[4] = molecular target: Fc-Fusion Protein (human soluble TNFα receptor linked to the Fc component of human immunoglobulin G1) (human) [IgG part: P01857]; assay: frontal analysis with CHO supernatant feed, fractions analysed on HiTrap MabSelect SuRe, residence time 2.4 min

Substance “Z4, tetramer of alkaline stabilized protein A (SuRe ligand domain / Z domain), MabSelect SuRe (designed binder)” has a DBC10% (dynamic binding capacity at 10% breakthrough) [1] of 10 mg/mL, a DBC10% (dynamic binding capacity at 10% breakthrough) [2] of 9 mg/mL and a DBC10% (dynamic binding capacity at 10% breakthrough) [3] of 5 mg/mL. The DBC10% (dynamic binding capacity at 10% breakthrough) [4] was 6 mg/mL.
